According to patent US20120014876A1 (ACADEMISCH ZIEKENHUIS MAASTRICHT, published 2012):
Bridges are numbered along the chain shown (N, C = ends). Where no end group is shown, it is not given here. rhodamine = not defined here; alkyl = not defined here

Assays:
[1] = molecular target: T1, rat frizzled-1 receptor (rat, UniProt Q08463 69-641); assay: cell-based or functional assay
[2] = molecular target: T2, rat frizzled-2 receptor (rat, UniProt Q08464 29-570); assay: cell-based or functional assay
[3] = molecular target: T2, rat frizzled-2 receptor; assay: inferred by the filing from inhibition curves of Wnt3a-induced luciferase activity in transfected HEK293-superTOPflash cells
Protocol: To determine the inhibitory constant of UM206-8, HEK293-superTOPflash cells were transfected with either rFzd-1 or -2 and incubated with Wnt3a (10⁻⁹M) in the presence of increasing concentrations of either of the peptides (FIG. 15). For UM206, a biphasic inhibition curve was observed that was best fitted with a two-binding-state model.

[4] = molecular target: T1, rat frizzled-1 receptor; assay: cell-based or functional assay; remark: listed apart in the source
[5] = molecular target: T2, rat frizzled-2 receptor; assay: cell-based or functional assay; remark: listed apart in the source
[6] = molecular target: T3, mouse Fzd-1 (mouse, UniProt O70421 69-642); assay: fluorescence imaging of small intestine and kidney sections
T3 construct: whole, on cells; also called mouse frizzled-1

[7] = molecular target: T4, mouse Fzd-2 (mouse, UniProt Q9JIP6 29-570); assay: rhodamine-labeled UM206 on kidney and small intestine sections
T4 construct: whole, on cells; also called mouse frizzled-2
T4 sequence (Q9JIP6 29-570): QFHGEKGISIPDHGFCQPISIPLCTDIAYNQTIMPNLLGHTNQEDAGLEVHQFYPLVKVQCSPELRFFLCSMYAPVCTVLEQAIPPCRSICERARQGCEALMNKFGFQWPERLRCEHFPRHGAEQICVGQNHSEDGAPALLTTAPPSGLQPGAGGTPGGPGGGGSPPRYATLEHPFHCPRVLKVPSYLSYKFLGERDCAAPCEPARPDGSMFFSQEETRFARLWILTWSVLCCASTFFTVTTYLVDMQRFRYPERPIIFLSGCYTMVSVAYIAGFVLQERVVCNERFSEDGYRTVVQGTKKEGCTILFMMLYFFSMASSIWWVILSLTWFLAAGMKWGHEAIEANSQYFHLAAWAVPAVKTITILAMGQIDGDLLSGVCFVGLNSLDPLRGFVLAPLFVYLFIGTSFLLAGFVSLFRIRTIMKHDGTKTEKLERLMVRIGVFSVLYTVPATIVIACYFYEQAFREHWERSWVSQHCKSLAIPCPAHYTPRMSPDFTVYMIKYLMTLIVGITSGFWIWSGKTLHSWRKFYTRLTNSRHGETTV

T2 sequence (Q08464 29-570): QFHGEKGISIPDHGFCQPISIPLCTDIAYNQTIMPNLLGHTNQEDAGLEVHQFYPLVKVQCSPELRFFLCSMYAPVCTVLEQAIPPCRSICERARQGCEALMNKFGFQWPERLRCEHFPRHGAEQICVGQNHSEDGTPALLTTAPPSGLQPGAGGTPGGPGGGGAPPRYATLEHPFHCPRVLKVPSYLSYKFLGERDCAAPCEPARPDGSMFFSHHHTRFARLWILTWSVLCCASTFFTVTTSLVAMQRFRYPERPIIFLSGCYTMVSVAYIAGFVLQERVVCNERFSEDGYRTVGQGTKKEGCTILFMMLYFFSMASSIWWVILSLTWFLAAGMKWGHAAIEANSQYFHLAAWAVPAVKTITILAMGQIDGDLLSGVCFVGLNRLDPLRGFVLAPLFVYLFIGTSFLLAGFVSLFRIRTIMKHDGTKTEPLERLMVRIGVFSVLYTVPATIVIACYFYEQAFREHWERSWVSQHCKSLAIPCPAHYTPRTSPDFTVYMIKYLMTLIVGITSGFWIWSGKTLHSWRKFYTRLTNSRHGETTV
T1 sequence (Q08463 69-641): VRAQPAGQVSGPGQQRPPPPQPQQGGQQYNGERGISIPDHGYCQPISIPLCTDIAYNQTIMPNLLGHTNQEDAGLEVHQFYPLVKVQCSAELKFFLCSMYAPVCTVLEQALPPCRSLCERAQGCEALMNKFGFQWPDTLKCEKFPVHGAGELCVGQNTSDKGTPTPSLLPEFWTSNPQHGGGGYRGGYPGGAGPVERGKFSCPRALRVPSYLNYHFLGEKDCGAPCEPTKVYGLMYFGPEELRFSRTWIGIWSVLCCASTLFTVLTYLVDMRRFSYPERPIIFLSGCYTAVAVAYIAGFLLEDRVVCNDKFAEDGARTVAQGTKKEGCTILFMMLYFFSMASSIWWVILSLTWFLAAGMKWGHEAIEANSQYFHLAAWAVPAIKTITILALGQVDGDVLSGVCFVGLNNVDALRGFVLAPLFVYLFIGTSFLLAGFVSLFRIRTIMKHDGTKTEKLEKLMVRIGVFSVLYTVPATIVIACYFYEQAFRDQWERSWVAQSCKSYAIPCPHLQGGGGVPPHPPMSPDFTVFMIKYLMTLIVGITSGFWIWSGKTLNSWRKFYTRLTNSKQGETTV
T3 sequence (O70421 69-642): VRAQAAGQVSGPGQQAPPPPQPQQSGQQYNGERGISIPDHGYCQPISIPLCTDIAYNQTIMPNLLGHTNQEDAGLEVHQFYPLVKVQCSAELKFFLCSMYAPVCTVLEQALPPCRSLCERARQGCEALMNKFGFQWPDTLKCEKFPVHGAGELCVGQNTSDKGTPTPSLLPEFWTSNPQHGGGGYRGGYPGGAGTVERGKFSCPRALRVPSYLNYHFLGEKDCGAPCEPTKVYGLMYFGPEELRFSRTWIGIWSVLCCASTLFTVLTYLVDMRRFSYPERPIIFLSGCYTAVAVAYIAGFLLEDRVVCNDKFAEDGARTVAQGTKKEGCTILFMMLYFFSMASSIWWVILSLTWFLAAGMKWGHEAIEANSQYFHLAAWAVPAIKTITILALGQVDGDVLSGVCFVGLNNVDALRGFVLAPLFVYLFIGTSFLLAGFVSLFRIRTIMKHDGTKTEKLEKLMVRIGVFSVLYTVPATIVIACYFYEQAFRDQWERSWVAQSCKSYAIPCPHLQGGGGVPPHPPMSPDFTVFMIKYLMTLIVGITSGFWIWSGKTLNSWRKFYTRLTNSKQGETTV

Binder	% of inhibition of Wnt3a-induced luciferase activity, peptide 1.10^-9 M [1]	% of inhibition of Wnt3a-induced luciferase activity, peptide 1.10^-9 M [2]	also measured
ANKTSEGMDGAEL [UM206 (C = A)]	0%	8.39%	–
Ac-CNKTSEGMDGCEL-NH2 (cysteine pairing not given here, Linear form, no disulfide bridge between the two cysteines; also called antagonist UM206) [Peptide UM206]	72.2%	75.1%	fold higher affinity than to rFzd-1 [3]: ~100 fold; IC50, inhibition of Wnt3a (10^-9 M)-induced luciferase activity, two-binding-state fit, major binding site [4]: 2.1 nM; IC50, inhibition of Wnt3a-induced luciferase activity [4]: 1 nM; IC50, inhibition of Wnt3a (10^-9 M)-induced luciferase activity, two-binding-state fit, high affinity site [5]: 0.0169 nM; IC50, inhibition of Wnt3a-induced luciferase activity [5]: 0.1 nM
CNKTSEAMDGCEL-NH2 (cysteine pairing not given here) [UM206 (7 G = A)]	52.6%	63.1%	–
CNKTSEGMDGAEL [UM206 (11 C = A)]	67.2%	84.9%	–
CNKTAEGMDGCEL-NH2 (cysteine pairing not given here) [UM206 (5 S = A)]	74.3%	87.3%	–
CNKTSEGADGCEL-NH2 (cysteine pairing not given here) [UM206 (8 M = A)]	67.6%	85%	–
CNKTSAGMDGCEL-NH2 (cysteine pairing not given here) [UM206 (6 E = A)]	70.8%	84.7%	–
CNKTSEGMDGCAL-NH2 (cysteine pairing not given here) [UM206 (12 E = A)]	65.9%	85.5%	–
CNKTSEGMDGCAA-NH2 (cysteine pairing not given here) [UM206 (12-13 EL = AA)]	66.8%	74.3%	–
Wnt3a (ligand) SYPIWWSLAVGPQYSSLGSQPILCASIPGLVPKQLRFCRNYVEIMPSVAEGIKIGIQECQHQFRGRRWNCTTVHDSLAIFGPVLDKATRESAFVHAIASAGVAFAVTRSCAEGTAAICGCSSRHQGSPGKGWKWGGCSEDIEFGGMVSREFADARENRPDARSAMNRHNNEAGRQAIASHMHLKCKCHGLSGSCEVKTCWWSQPDFRAIGDFLKDKYDSASEMVVEKHRESRGWVETLRPRYTYFKVPTERDLVYYEASPNFCEPNPETGSFGTRDRTCNVSSHGIDGCDLLCCGRGHNARAERRREKCRCVFHWCCYVSCQECTRVYDVHTCK	–	–	fold increase of luciferase activity (TOPflash reporter, HEK cells) [5]: 12 fold
CNKTSEGMAGCEL-NH2 (cysteine pairing not given here) [UM206 (9 D = A)]	40.5%	60.5%	–
CAKTSEGMDGCEL-NH2 (cysteine pairing not given here) [UM206 (2 N = A)]	68%	79.5%	–
CNKASEGMDGCEL-NH2 (cysteine pairing not given here) [UM206 (4 T = A)]	28.1%	59.4%	–
Ac-GIKECQYQFRHRRWNCSTVD-NH2 (cysteine pairing not given here) [Peptide UM207]	–	–	IC50, inhibition of Wnt3a (10^-9 M)-induced luciferase activity, single binding site fit [4]: 40 nM; IC50, inhibition of Wnt3a (10^-9 M)-induced luciferase activity, single binding site fit [5]: 15.2 nM
SNKTSEGMDGSEL [UM206 (C = S)]	0%	17%	–
CNKTSEGMDGCEA-NH2 (cysteine pairing not given here) [UM206 (13 L = A)]	65.9%	86.5%	–
CNKASEAMAGCEL-NH2 (cysteine pairing not given here) [UM206 (4 T = A, 7 G = A, 9 D = A)]	11.2%	17.5%	–
CNATSEGMDGCEL-NH2 (cysteine pairing not given here) [UM206 (3 K = A)]	70.8%	84.9%	–
CNKTSEGMDGC-NH2 (cysteine pairing not given here) [UM206 - (deletion of the C-terminal Glutamic acid and Leucine)]	18%	61.2%	–
C(alkyl)NKTSEGMDGC(alkyl)EL-NH2 (not fully specified (N-terminus); reading uncertain; also: alkyl group not given here) [UM206 (C = C-alkyl)]	1%	12.4%	–
Ac-CNKTSEGMDGCEL-NH2 (disulfide 1-11) [Peptide UM206(S-S)]	–	–	EC50, luciferase activity (amount of agonist that yields 50% of maximum activity) [4]: 10 nM; EC50, luciferase activity (amount of agonist that yields 50% of maximum activity) [5]: 20 nM
CNKTSEGMDACEL-NH2 (cysteine pairing not given here) [UM206 (10 G = A)]	69.9%	83.3%	–
Ac-CNK(rhodamine)TSEGMDGCEL-NH2 (cysteine pairing not given here; reading uncertain, UM206 with rhodamine on Lys3; end groups as UM206 (Ac-, -NH2) not restated; also called UM206-rhodamine; UM206-Rhodamine) [rhodamine-labeled UM206]	–	–	binding result [6]: binds; binding result [7]: binds
CNVSSHGIDGCDL-NH2 (cysteine pairing not given here) [peptide CNVSSHGIDGCDL (SEQ ID NO:18)]	45.3%	62.4%	–
ANKTSEGMDGCEL [UM206 (1 C = A)]	70.8%	82.6%	–
